Substrate: Nc1ncnc2c1ncn2[C@@H]1O[C@H](COP(=O)(O)OP(=O)(O)OP(=O)(O)O)[C@@H](O)[C@H]1O
Assay: purified protein
Assay type: biochemical, Saccharomyces cerevisiae
Conditions: 500 nM Pah1 as protein substrate, 10 mM MgCl2, 2 mM DTT, pH 7.5, 30 °C, labelled compound

B1: Hsl1 (Saccharomyces cerevisiae S288C) (protein)
chain: MTGHVSKTSHVPKGRPSSLAKKAAKRAMAKVNSNPKRASGHLERVVQSVNDATKRLSQPDSTVSVATKSSKRKSRDTVGPWKLGKTLGKGSSGRVRLAKNMETGQLAAIKIVPKKKAFVHCSNNGTVPNSYSSSMVTSNVSSPSIASREHSNHSQTNPYGIEREIVIMKLISHTNVMALFEVWENKSELYLVLEYVDGGELFDYLVSKGKLPEREAIHYFKQIVEGVSYCHSFNICHRDLKPENLLLDKKNRRIKIADFGMAALELPNKLLKTSCGSPHYASPEIVMGRPYHGGPSDVWSCGIVLFALLTGHLPFNDDNIKKLLLKVQSGKYQMPSNLSSEARDLISKILVIDPEKRITTQEILKHPLIKKYDDLPVNKVLRKMRKDNMARGKSNSDLHLLNNVSPSIVTLHSKGEIDESILRSLQILWHGVSRELITAKLLQKPMSEEKLFYSLLLQYKQRHSISLSSSSENKKSATESSVNEPRIEYASKTANNTGLRSENNDVKTLHSLEIHSEDTSTVNQNNAITGVNTEINAPVLAQKSQFSINTLSQPESDKAEAEAVTLPPAIPIFNASSSRIFRNSYTSISSRSRRSLRLSNSRLSLSASTSRETVHDNEMPLPQLPKSPSRYSLSRRAIHASPSTKSIHKSLSRKNIAATVAARRTLQNSASKRSLYSLQSISKRSLNLNDLLVFDDPLPSKKPASENVNKSEPHSLESDSDFEILCDQILFGNALDRILEEEEDNEKERDTQRQRQNDTKSSADTFTISGVSTNKENEGPEYPTKIEKNQFNMSYKPSENMSGLSSFPIFEKENTLSSSYLEEQKPKRAALSDITNSFNKMNKQEGMRIEKKIQREQLQKKNDRPSPLKPIQHQELRVNSLPNDQGKPSLSLDPRRNISQPVNSKVESLLQGLKFKKEPASHWTHERGSLFMSEHVEDEKPVKASDVSIESSYVPLTTVATSSRDPSVLAESSTIQKPMLSLPSSFLNTSMTFKNLSQILADDGDDKHLSVPQNQSRSVAMSHPLRKQSAKISLTPRSNLNANLSVKRNQGSPGSYLSNDLDGISDMTFAMEIPTNTFTAQAIQLMNNDTDNNKINTSPKASSFTKEKVIKSAAYISKEKEPDNSDTNYIPDYTIPNTYDEKAINIFEDAPSDEGSLNTSSSESDSRASVHRKAVSIDTMATTNVLTPATNVRVSLYWNNNSSGIPRETTEEILSKLRLSPENPSNTHMQKRFSSTRGSRDSNALGISQSLQSMFKDLEEDQDGHTSQADILESSMSYSKRRPSEESVNPKQRVTMLFDEEEEESKKVGGGKIKEEHTKLDNKISEESSQLVLPVVEKKENANNTENNYSKIPKPSTIKVTKDTAMESNTQTHTKKPILKSVQNVEVEEAPSSDKKNWFVKLFQNFSSHNNATKASKNHVTNISFDDAHMLTLNEFNKNSIDYQLKNLDHKFGRKVVEYDCKFVKGNFKFKIKITSTPNASTVITVKKRSKHSNTSSNKAFEKFNDDVERVIRNAGRS
notes: full-length with C-terminal TAP tag kept (chromosomal HSL1-TAP); IgG-Sepharose purified from S. cerevisiae, endogenously phosphorylated; ~190 kDa on gel
  Km: 31 µM

Reference: article PMC11342776, “Protein kinase Hsl1 phosphorylates Pah1 to inhibit phosphatidate phosphatase activity and regulate lipid synthesis in Saccharomyces cerevisiae” (The Journal of Biological Chemistry, 2024)
